# B1: clusterin, purified from human plasma (natural protein)
# chain 1: DQTVSDNELQEMSNQGSKYVNKEIQNAVNGVKQIKTLIEKTNEERKTLLSNLEEAKKKKEDALNETRESETKLKELPGVCNETMMALWEECKPCLKQTCMKFYARVCRSGSGLVGRQLEEFLNQSSPFYFWMNGDRIDSLLENDRQQTHMLDVMQDHFSRASSIIDELFQDRFFTREPQDTYHYLPFSLPHRRPHFFFPKSRIVR
# chain 2: SLMPFSPYEPLNFHAMFQPFLEMIHEAQQAMDIHFHSPAFQHPPTEFIREGDDDRTVCREIRHNSTGCLRMKDQCDKCREILSVDCSTNNPSQAKLRRELDESLQVAERLTRKYNELLKSYQWKMLNTSSLLEQLNEQFNWVSRLANLTQGEDQYYLRVTTVASHTSDSDVPSGVTEVVVKLFDSDPITVTVPVEVSRKNPKFMETVAEKALQEYRKKHREE
# notes: Disulfide-linked heterodimer of one alpha and one beta chain of 40 kDa each; In the MST experiment labelled with NT-647 RED-NHS; source: bought: BioVision, purified from human plasma; copies: 1 + 1
# B2: Lpd deletion mutant Lpd^1-382 (domain or fragment, P. aeruginosa strain PAO1, UniProt Q9I3D1 1-382, looked up)
# chain: MSQKFDVVVIGAGPGGYVAAIRAAQLGLKTACIEKYIGKEGKVALGGTCLNVGCIPSKALLDSSYKYHEAKEAFKVHGIEAKGVTIDVPAMVARKANIVKNLTGGIATLFKANGVTSFEGHGKLLANKQVEVTGLDGKTQVLEAENVIIASGSRPVEIPPAPLTDDIIVDSTGALEFQAVPKKLGVIGAGVIGLELGSVWARLGAEVTVLEALDKFLPAADEQIAKEALKVLTKQGLNIRLGARVTASEVKKKQVTVTFTDANGEQKETFDKLIVAVGRRPVTTDLLAADSGVTLDERGFIYVDDHCKTSVPGVFAIGDVVRGAMLAHKASEEGVMVAERIAGHKAQMNYDLIPSVIYTHPEIAWVGKTEQTLKAEGVEVNV
# notes: Dihydrolipoamide dehydrogenase (Lpd), P. aeruginosa strain PAO1, residues 1-382; also called Lpd^1-382: 53 kDa
# B3: Dihydrolipoamide dehydrogenase (Lpd) of P. aeruginosa, recombinant full length (Lpd^1-478) (natural protein)
# chain: MSQKFDVVVIGAGPGGYVAAIRAAQLGLKTACIEKYIGKEGKVALGGTCLNVGCIPSKALLDSSYKYHEAKEAFKVHGIEAKGVTIDVPAMVARKANIVKNLTGGIATLFKANGVTSFEGHGKLLANKQVEVTGLDGKTQVLEAENVIIASGSRPVEIPPAPLTDDIIVDSTGALEFQAVPKKLGVIGAGVIGLELGSVWARLGAEVTVLEALDKFLPAADEQIAKEALKVLTKQGLNIRLGARVTASEVKKKQVTVTFTDANGEQKETFDKLIVAVGRRPVTTDLLAADSGVTLDERGFIYVDDHCKTSVPGVFAIGDVVRGAMLAHKASEEGVMVAERIAGHKAQMNYDLIPSVIYTHPEIAWVGKTEQTLKAEGVEVNVGTFPFAASGRAMAANDTTGLVKVIADAKTDRVLGVHVIGPSAAELVQQGAIGMEFGTSAEDLGMMVFSHPTLSEALHEAALAVNGHAIHIANRKKR
# notes: On the gel two bands, 57 and 50 kDa
# B4: Lpd deletion mutant Lpd^1-287 (domain or fragment, P. aeruginosa strain PAO1, UniProt Q9I3D1 1-287, looked up)
# chain: MSQKFDVVVIGAGPGGYVAAIRAAQLGLKTACIEKYIGKEGKVALGGTCLNVGCIPSKALLDSSYKYHEAKEAFKVHGIEAKGVTIDVPAMVARKANIVKNLTGGIATLFKANGVTSFEGHGKLLANKQVEVTGLDGKTQVLEAENVIIASGSRPVEIPPAPLTDDIIVDSTGALEFQAVPKKLGVIGAGVIGLELGSVWARLGAEVTVLEALDKFLPAADEQIAKEALKVLTKQGLNIRLGARVTASEVKKKQVTVTFTDANGEQKETFDKLIVAVGRRPVTTDLL
# notes: Dihydrolipoamide dehydrogenase (Lpd), P. aeruginosa strain PAO1, residues 1-287; also called Lpd^1-287: 37 kDa
# B5: vitronectin, monomeric, purified from human plasma (natural protein)
# chain: DQESCKGRCTEGFNVDKKCQCDELCSYYQSCCTDYTAECKPQVTRGDVFTMPEDEYTVYDDGEEKNNATVHEQVGGPSLTSDLQAQSKGNPEQTPVLKPEEEAPAPEVGASKPEGIDSRPETLHPGRPQPPAEEELCSGKPFDAFTDLKNGSLFAFRGQYCYELDEKAVRPGYPKLIRDVWGIEGPIDAAFTRINCQGKTYLFKGSQYWRFEDGVLDPDYPRNISDGFDGIPDNVDAALALPAHSYSGRERVYFFKGKQYWEYQFQHQPSQEECEGSSLSAVFEHFAMMQRDSWEDIFELLFWGRTSAGTRQPQFISRDWHGVPGQVDAAMAGRIYISGMAPRPSLAKKQRFRHRNRKGYRSQRGHSRGRNQNSRRPSRATWLSLFSSEESNLGANNYDDYRMDWLVPATCEPIQSVFFFSGDKYYRVNLRTRRVDTVDPPYPRSIAQYWLGCPAPGHL
# notes: vitronectin, human, purified from plasma; In the MST experiment labelled with NT-647 RED-NHS; Plasma vitronectin circulates as variants of 75 and 65 kDa; also called Vn; full-length vitronectin; source: bought: Corning, purified from human plasma
# Assays:
# Details in all cases: both partners purified
# [1] = molecular target: B3; test: MST; fluid phase; NT-647-labeled vitronectin (50 nM) or clusterin (25 nM) mixed with Lpd in 1:2 dilutions (0.001 to 50 μM); 50 mM Tris-HCl pH 7.6, 150 mM NaCl, 10 mM MgCl2, 0.05% Tween-20; RT; 50% LED power, 80% MST power
# [2] = molecular target: B5; test: ELISA; equimolar amounts (13.3 nM) of full length Lpd and Lpd deletion mutants immobilized on microtiter plates; vitronectin or clusterin added; bound ligand quantified with antibodies
# [3] = molecular target: B1; test: as above
# Factor H = molecular target: T1, Factor H (human, UniProt P08603 19-1231); test: ELISA; two human ligands added together to immobilized Lpd, one at a constant concentration (vitronectin 5 μg/ml, clusterin 2.5 μg/ml, Factor H 5 μg/ml or plasminogen 5 μg/ml), the other at increasing concentrations; each detected with its own antibody
# T1 construct: complement Factor H, human; source: bought: Complement Technology
# T1 sequence (P08603 19-1231): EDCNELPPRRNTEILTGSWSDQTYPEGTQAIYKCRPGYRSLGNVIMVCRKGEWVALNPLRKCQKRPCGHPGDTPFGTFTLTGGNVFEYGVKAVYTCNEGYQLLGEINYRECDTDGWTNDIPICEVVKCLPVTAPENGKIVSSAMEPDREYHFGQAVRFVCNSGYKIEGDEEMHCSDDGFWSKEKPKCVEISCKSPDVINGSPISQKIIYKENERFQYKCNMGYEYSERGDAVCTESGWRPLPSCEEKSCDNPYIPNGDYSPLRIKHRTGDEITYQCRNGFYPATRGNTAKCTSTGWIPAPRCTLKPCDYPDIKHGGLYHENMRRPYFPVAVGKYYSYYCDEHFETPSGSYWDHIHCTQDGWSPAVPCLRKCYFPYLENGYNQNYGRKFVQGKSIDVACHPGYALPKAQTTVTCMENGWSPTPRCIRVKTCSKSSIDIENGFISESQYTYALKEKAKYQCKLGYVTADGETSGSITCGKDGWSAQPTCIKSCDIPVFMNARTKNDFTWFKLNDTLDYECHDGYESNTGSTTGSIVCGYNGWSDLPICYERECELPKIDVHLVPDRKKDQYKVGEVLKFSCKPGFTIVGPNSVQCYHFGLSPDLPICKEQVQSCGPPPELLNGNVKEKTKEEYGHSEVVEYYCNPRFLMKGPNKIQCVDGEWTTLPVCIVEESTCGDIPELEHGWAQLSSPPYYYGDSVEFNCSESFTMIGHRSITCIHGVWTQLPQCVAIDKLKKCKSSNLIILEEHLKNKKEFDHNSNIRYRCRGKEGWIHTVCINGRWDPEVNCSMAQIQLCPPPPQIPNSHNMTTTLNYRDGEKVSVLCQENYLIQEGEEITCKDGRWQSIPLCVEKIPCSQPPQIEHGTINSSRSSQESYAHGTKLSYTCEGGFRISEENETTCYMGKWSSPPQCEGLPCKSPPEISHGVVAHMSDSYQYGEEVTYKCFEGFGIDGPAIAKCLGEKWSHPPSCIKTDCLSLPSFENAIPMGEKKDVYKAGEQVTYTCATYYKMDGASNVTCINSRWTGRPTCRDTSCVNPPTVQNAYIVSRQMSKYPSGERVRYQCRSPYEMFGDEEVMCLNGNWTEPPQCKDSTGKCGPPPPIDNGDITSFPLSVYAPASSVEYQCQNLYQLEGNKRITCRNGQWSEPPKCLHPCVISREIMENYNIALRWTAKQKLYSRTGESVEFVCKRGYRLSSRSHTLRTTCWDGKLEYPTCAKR
# [4] = molecular target: B3; test: as above
# [5] = molecular target: Lpd deletion mutant Lpd^141-478 (P. aeruginosa strain PAO1, UniProt Q9I3D1 141-478); test: ELISA; equimolar amounts (13.3 nM) of full length Lpd and Lpd deletion mutants immobilized on microtiter plates; vitronectin or clusterin added; bound ligand quantified with antibodies
# [6] = molecular target: T2, Lpd deletion mutant Lpd^1-160 (P. aeruginosa strain PAO1, UniProt Q9I3D1 1-160); test: as above
# T2 construct: Dihydrolipoamide dehydrogenase (Lpd), P. aeruginosa strain PAO1, residues 1-160; also called Lpd^1-160: 20 kDa; N-terminal Lpd^1-160
# [7] = molecular target: Lpd deletion mutant Lpd^264-478 (P. aeruginosa strain PAO1, UniProt Q9I3D1 264-478); test: as above
binder,measurement,setting,value
B1,Kd,[1],654 ± 54 nM
B2,binding result,[2],binds
same,binding result,[3],binds
B3,binding result,Factor H,binds
B4,binding result,[2],binds
B5,percent reduction of Factor H binding to Lpd by vitronectin at four-fold molar excess,[4],37%
same,Kd,[1],600 ± 50 nM
same,percent reduction of binding (ELISA signal),[5],47%
same,percent reduction of binding (ELISA signal),[6],51%
same,percent reduction of binding (ELISA signal),[7],47%

# From paper PMC4569481, “Pseudomonas aeruginosa Uses Dihydrolipoamide Dehydrogenase (Lpd) to Bind to the Human Terminal Pathway Regulators Vitronectin and Clusterin to Inhibit Terminal Pathway Complement Attack” (PLoS ONE, 2015)
